In the RNAGym collection of RNA variant scans (doi:10.7554/elife.80360):

B1: CPEB3 Ribozyme (parent)
chain: GGGGGCCACAGCAGAAGCGUUCACGUCGCGGCCCCUGUCAGAUUCUGGUGAAUCUGCGAAUUCUGCUGU

Variants of: B1
Test: self-cleavage, relative activity (ratio to wild type); higher = more cleavage; co-transcriptional

Variant | self-cleavage
GGGGGCCACAGCAGAAGCGUUCACGUCGCGGCCCCUGUCAGAUUCUGGUGAAUCUGCUAACUCUGCUGU | 0.892
GGGGGCCACAGCAGAAGCGUUCACGUCGCGGCCCCUGUCAGAUUCUGGUGAAUCUGCAAACUCUGCUGU | 0.82
GGGGGCCACAGCAGAAGCGUUCACGUCGCGGCCCCUGUCAGAUUCUGGUGAAUCUGCAAAGUCUGCUGU | 0.861
GGGGGCCACAGCAGAAGCGUUCACGUCGCGGCCCCUGUCAGAUUCUGGUGAAUCUGCAAAAUCUGCUGU | 0.827
GGGGGCCACAGCAGAAGCGUUCACGUCGCGGCCCCUGUCAGAUUCUGGUGAAUCUGCCAAUUCUGGUGU | 0.884
GGGGGCCACAGCAGAAGCGUUCACGUCGCGGCCCCUGUCAGAUUCUGGUGAAUCUGCCAAUUCUGAUGU | 0.818
GGGGGCCACAGCAGAAGCGUUCACGUCGCGGCCCCUGUCAGAUUCUGGUGAAUCUGCAACUUCUGCUGU | 0.495
GGGGGCCACAGCAGAAGCGUUCACGUCGCGGCCCCUGUCAGAUUCUGGUGAAUCUGCAAGUUCUGCUGU | 0.83
GGGGGCCACAGCAGAAGCGUUCACGUCGCGGCCCCUGUCAGAUUCUGGUGAAUCUGCAAUUUCUGCUGU | 0.919
GGGGGCCACAGCAGAAGCGUUCACGUCGCGGCCCCUGUCAGAUUCUGGUGAAUCUGCUAAUUCUGCUUU | 0.966
GGGGGCCACAGCAGAAGCGUUCACGUCGCGGCCCCUGUCAGAUUCUGGUGAAUCUGCUAAUUCUGCUCU | 1.03
GGGGGCCACAGCAGAAGCGUUCACGUCGCGGCCCCUGUCAGAUUCUGGUGAAUCUGCUAAUUCUGCUAU | 0.993
GGGGGCCACAGCAGAAGCGUUCACGUCGCGGCCCCUGUCAGAUUCUGGUGAAUCUGUGAAUUCGGCUGU | 0.365
GGGGGCCACAGCAGAAGCGUUCACGUCGCGGCCCCUGUCAGAUUCUGGUGAAUCUGCCAAUACUGCUGU | 0.918
GGGGGCCACAGCAGAAGCGUUCACGUCGCGGCCCCUGUCAGAUUCUGGUGAAUCUGCCAAUCCUGCUGU | 0.902
GGGGGCCACAGCAGAAGCGUUCACGUCGCGGCCCCUGUCAGAUUCUGGUGAAUCUGCCAAUUCUACUGU | 0.844
GGGGGCCACAGCAGAAGCGUUCACGUCGCGGCCCCUGUCAGAUUCUGGUGAAUCUGCCAAUUCUUCUGU | 0.842
GGGGGCCACAGCAGAAGCGUUCACGUCGCGGCCCCUGUCAGAUUCUGGUGAAUCUGCUAAUUCUGAUGU | 0.928
GGGGGCCACAGCAGAAGCGUUCACGUCGCGGCCCCUGUCAGAUUCUGGUGAAUCUGCUAAUUCUGUUGU | 1.02
GGGGGCCACAGCAGAAGCGUUCACGUCGCGGCCCCUGUCAGAUUCUGGUGAAUCUGUGAAUCCUGCUGU | 0.41

Variant | self-cleavage
GGGGGCCACAGCAGAAGCGUUCACGUCGCGGCCCCUGUCAGAUUCUGGUGAAUCUGUGAAUACUGCUGU | 0.363
GGGGGCCACAGCAGAAGCGUUCACGUCGCGGCCCCUGUCAGAUUCUGGUGAAUCUGCCAAUUCAGCUGU | 0.955
GGGGGCCACAGCAGAAGCGUUCACGUCGCGGCCCCUGUCAGAUUCUGGUGAAUCUGCCAAUUCCGCUGU | 0.777
GGGGGCCACAGCAGAAGCGUUCACGUCGCGGCCCCUGUCAGAUUCUGGUGAAUCUGCCAAUUCUGCUGA | 0.998
GGGGGCCACAGCAGAAGCGUUCACGUCGCGGCCCCUGUCAGAUUCUGGUGAAUCUGCCAAUUCUGCUGG | 1.05
GGGGGCCACAGCAGAAGCGUUCACGUCGCGGCCCCUGUCAGAUUCUGGUGAAUCUGCCAAAUCUGCUGU | 0.877
GGGGGCCACAGCAGAAGCGUUCACGUCGCGGCCCCUGUCAGAUUCUGGUGAAUCUGCCAAGUCUGCUGU | 0.912
GGGGGCCACAGCAGAAGCGUUCACGUCGCGGCCCCUGUCAGAUUCUGGUGAAUCUGCAAAUUCUGCUGA | 0.99
GGGGGCCACAGCAGAAGCGUUCACGUCGCGGCCCCUGUCAGAUUCUGGUGAAUCUGCAAAUUCUGCUGG | 1.02
GGGGGCCACAGCAGAAGCGUUCACGUCGCGGCCCCUGUCAGAUUCUGGUGAAUCUGCUAAUUUUGCUGU | 1.03
GGGGGCCACAGCAGAAGCGUUCACGUCGCGGCCCCUGUCAGAUUCUGGUGAAUCUGCUAAUUGUGCUGU | 1.01
GGGGGCCACAGCAGAAGCGUUCACGUCGCGGCCCCUGUCAGAUUCUGGUGAAUCUGCUAAUCCUGCUGU | 0.953
GGGGGCCACAGCAGAAGCGUUCACGUCGCGGCCCCUGUCAGAUUCUGGUGAAUCUGCUAAUACUGCUGU | 0.958
GGGGGCCACAGCAGAAGCGUUCACGUCGCGGCCCCUGUCAGAUUCUGGUGAAUCUGCUAAUGCUGCUGU | 1.01
GGGGGCCACAGCAGAAGCGUUCACGUCGCGGCCCCUGUCAGAUUCUGGUGAAUCUGCAAAUUGUGCUGU | 0.757
GGGGGCCACAGCAGAAGCGUUCACGUCGCGGCCCCUGUCAGAUUCUGGUGAAUCUGCAAAUUUUGCUGU | 0.957
GGGGGCCACAGCAGAAGCGUUCACGUCGCGGCCCCUGUCAGAUUCUGGUGAAUCUGCAAAUUCCGCUGU | 0.861
GGGGGCCACAGCAGAAGCGUUCACGUCGCGGCCCCUGUCAGAUUCUGGUGAAUCUGCAAAUUCAGCUGU | 0.92
GGGGGCCACAGCAGAAGCGUUCACGUCGCGGCCCCUGUCAGAUUCUGGUGAAUCUGCAAAUCCUGCUGU | 0.872
